Measurements taken from paper PMC4394352.

Target: PP1G(7–300) (mouse) (UniProt P63087)

dephosphorylation as a substrate of the PPP1R15B-MBP-PP1-actin ternary complex, against wildtype eIF2a^P (Figure 8B): > 10 fold | dephosphorylation as a substrate of the PPP1R15B-MBP-PP1 binary complex, against wildtype eIF2a^P (Figure 8B): 2 fold
Substance: eIF2a^P (1–185) R66E; K86E double mutant (domain or fragment)
